Results on 1 substance are retold here after US20250041434A1, “CEA ASSAY FOR PATIENT SELECTION IN CANCER THERAPY” (SANOFI, priority 2021, published 2025).

Data set [1] addresses T1, A3B3 domain of human CEACAM5 (Homo sapiens, UniProt P06731).
T1 sequence (P06731 499-685 limits assumed): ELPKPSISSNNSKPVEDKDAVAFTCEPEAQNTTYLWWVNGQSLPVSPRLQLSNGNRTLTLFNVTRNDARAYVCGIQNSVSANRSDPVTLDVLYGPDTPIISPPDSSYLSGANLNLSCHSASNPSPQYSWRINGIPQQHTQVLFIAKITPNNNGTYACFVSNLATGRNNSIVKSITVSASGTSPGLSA
Description: domain specificity of binding.

The target in another data set is T2, CEACAM1 (Homo sapiens, UniProt P13688).
T2 sequence (P13688 35-526): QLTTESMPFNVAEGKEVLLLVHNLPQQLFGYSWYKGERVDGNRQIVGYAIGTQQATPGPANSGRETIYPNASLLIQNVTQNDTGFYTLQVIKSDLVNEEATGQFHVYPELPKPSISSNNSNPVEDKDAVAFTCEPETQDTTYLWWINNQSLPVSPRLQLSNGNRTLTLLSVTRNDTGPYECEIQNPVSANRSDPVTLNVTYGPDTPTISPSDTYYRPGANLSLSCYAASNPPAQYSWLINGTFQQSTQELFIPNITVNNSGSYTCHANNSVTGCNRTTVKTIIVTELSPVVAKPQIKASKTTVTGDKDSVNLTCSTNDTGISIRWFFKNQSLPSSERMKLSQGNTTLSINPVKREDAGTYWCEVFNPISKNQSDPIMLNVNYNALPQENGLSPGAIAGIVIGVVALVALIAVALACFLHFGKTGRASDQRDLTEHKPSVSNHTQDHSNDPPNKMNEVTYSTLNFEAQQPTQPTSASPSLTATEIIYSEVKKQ
The experiment in a line: recognition of other CEACAMs. The format is binding.

For a further data set, the target named is T3, CEACAM6 (Homo sapiens, UniProt P40199).
T3 sequence (P40199 35-320): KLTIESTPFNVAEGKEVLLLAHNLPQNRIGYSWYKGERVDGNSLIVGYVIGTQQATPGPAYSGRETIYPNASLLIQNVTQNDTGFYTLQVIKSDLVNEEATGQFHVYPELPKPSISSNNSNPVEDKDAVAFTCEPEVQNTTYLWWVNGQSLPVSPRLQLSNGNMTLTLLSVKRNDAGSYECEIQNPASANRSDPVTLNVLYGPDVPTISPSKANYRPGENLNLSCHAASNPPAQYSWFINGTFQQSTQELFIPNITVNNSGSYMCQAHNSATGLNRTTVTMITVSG
Description: recognition of other CEACAMs. The format is binding.

Data set [2] is described as follows: TED13751 Main dose escalation, maximum tolerated dose. The format is in vivo, human. The following applies: q2w, IV infusion. An excerpt:
The dose escalation decision will be based on the dose limiting toxicities (DLTs) observed during Cycle 1+Cycle 2 in q2w cycle and during Cycle 1 in q3w cycle, whether related or not to the investigational medicinal product (IMP) in the absence of clear evidence to the contrary after validation by the Study Committee, and if not related to the progression of disease. Before escalating the tusamitamab ravtansine dose to the next level, the safety data, and especially DLTs, ocular and cardiac adverse events (AEs) will be reviewed by the Study Committee. Cumulative toxicities observed on subsequent administrations will also be considered for the dose escalation process and the dose selection decision. […]
For the accelerated dose escalation phase, as well as for the Bayesian EWOC, a minimum of […] duration (˜4 weeks) will be mandatory between the last patient who has received Day 1 of Cycle 1 at DL n, and the first patient who will receive Day 1 of Cycle 1 at DL n+1. The dose determined to be the maximum tolerated dose (MTD) will be tested further in the Expansion cohorts.
The first loading dose tested will be 120 mg/m^2; if this first dose is safe, then dose escalation will proceed to test next 135 mg/m^2, and 150 mg/m^2. […] The determined MTD or safe MAD will be used for CRC-L cohort.

Data set [3] in a line: Phase 1/2 study adverse drug reactions. The format is in vivo, human. The settings on record: heavily pre-treated high CEACAM5 expressers for NSCLC. The protocol:
The ADC was analyzed in a Phase 1/2 study in heavily pre-treated high CEACAM5 expressers for NSCLC.

In data set [4] the test system is relevant experimental model. Description: single administration in relevant experimental model. The format is in vivo.
Data set [5] concerns patient-derived CRC xenograft expressing CEACAM5. Description: circulating CEA in mice engrafted orthotopically with patient-derived CRC xenograft. The format is in vivo. The following applies: single active dose; rise in circulating CEA occurring with tumor growth. An excerpt:
However, specificities linked to the CEACAM5 target would potentially allow a more accurate follow-up of treatment impact on tumor growth by the monitoring CEA levels in the blood. Indeed, measurement of circulating CEA levels is of some use for CRC treatment monitoring. […] Similarly, modulation of circulating CEA may be a useful PDy marker of response to tusamitamab ravtansine. […] The usefulness of monitoring circulating CEA will be explored in this clinical study.
On the technique in general: A xenograft is tissue or cells of one species grown in another, often human tumour cells in immunodeficient mice.

A further data set deals with cells expressing CEACAM5. The settings on record: see WO 2014/079886; cited from earlier work.

Regarding “Tusamitamab ravtansine: immunoconjugate ADC combining humanized anti-CEACAM5 antibody tusamitamab and maytansinoid DM4 via SPDB linker; CAS Registry No. 2254086-60-5”, the “binding to A3B3 domain of human CEACAM5” value in data set [1] is “specifically binds”. Further, the “recognition of CEACAM1” value with CEACAM1 is listed as “does not recognize”. Besides, in the data set with CEACAM6, the “recognition of CEACAM6” value is “does not recognize”. Moreover, in data set [2], the “maximum tolerated dose (MTD)” value is reported as 100 mg/m^2. For the same substance, in data set [3], the hematological/nerve toxicity entry is “minimal”. For the same substance, in data set [3] (reversible without treatment discontinuation), the “most common Adverse Drug Reactions (ADRs)” value is recorded as “ocular toxicity”. Besides, the tumor regressions result in data set [4] was “induces regressions”. In addition, the “circulating CEA” value in data set [5] is “prevented a rise in circulating CEA”. In the data set with cells expressing CEACAM5, the “internalization into cells expressing CEACAM5 after binding” value is given as “capable of being internalized”.
